In the supplement of paper PMC10126150:
± gives the standard deviation of the averaged measurements.

Tested on: ATP
Assay: switch fluorescence ratio, 500 uM ATP over buffer (Cy3 cluster intensity, sum of 5 cycles each) (fold (ratio)); higher = stronger signal-on switching upon ATP binding; sequences stand for … in TCGTCGGCAGCGTCAGATGTGTATAAGAGACAGTTTTTTTTTTTTTTTTTTTTTTTTT…TC
Conditions: aptamer strand: ATP DNA aptamer (quencher-CACCTGGGGGAGTATTGCGGAGGAAGG + anchor), 100 nM annealed; ATP concentration: 500 uM
How it was run: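 Clusters carrying Cy3-labelled switching strands on a modified Illumina MiSeq flow-cell were annealed to 100 nM quencher-labelled ATP aptamer and imaged in selection buffer. They were imaged again after 15 min with 500 uM ATP at 22 °C, over five buffer/ATP cycles with NaOH stripping and re-annealing in between. For each cluster, the fluorescence ratio is the summed Cy3 intensity of the target cycles divided by that of the buffer cycles, averaged per switch-domain sequence. Clusters outside 100-1000 RFU were left out.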
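Further: ATP exposure 15 min at 22 °C before imaging.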

Sequence | switch fluorescence ratio
AAGGGAAGCG | 1.01 ± 0.039
AAGGGACTTG | 0.995 ± 0.018
AAGGGCAGGG | 1.03 ± 0.029
AAGGGCAGGT | 1.01 ± 0.03
AAGGGCCAGC | 0.9896 ± 0.0042
AAGGGCCGTG | 1.02 ± 0.04
AAGGGCCTTC | 1.025 ± 0.0071
AAGGGCGCTC | 0.975 ± 0.032
AAGGGCGGC | 1.03 ± 0.018
AAGGGCTACG | 0.983 ± 0.04
AAGGGCTAGA | 1 ± 0.016
AAGGGGAAAG | 0.998 ± 0.025
AAGGGGAACT | 0.9907 ± 0.0043
AAGGGGAGAG | 0.993 ± 0.018
AAGGGGCACT | 1.02 ± 0.047
AAGGGGCAGG | 1.04 ± 0.084
AAGGGGCCCT | 1.0195 ± 0.00095
AAGGGGCCGA | 0.994 ± 0.034
AAGGGGCCGC | 0.982 ± 0.026
AAGGGGGAAG | 0.971 ± 0.015
AAGGGGGAAT | 1.05 ± 0.031
AAGGGGGAGA | 0.994 ± 0.03
AAGGGGGCGT | 1 ± 0.026
AAGGGGGG | 0.994 ± 0.062
AAGGGGGGAA | 1.06 ± 0.21
AAGGGGGGGC | 0.998 ± 0.062

Sequence | switch fluorescence ratio
AAGGGGTGGA | 1.01 ± 0.05
AAGGGTGGTC | 0.957 ± 0.012
AAGGGTTAAG | 0.9975 ± 0.006
AAGGGTTGAG | 0.981 ± 0.046
AAGGGTTGTT | 1.01 ± 0.032
AAGGGTTTGA | 1.032 ± 0.0096
AAGGTACCGG | 1.01 ± 0.03
AAGGTACCGT | 1.05 ± 0.055
AAGGTAGGGC | 1.014 ± 0.008
AAGGTATATA | 0.9938 ± 0.0031
AAGGTATCTG | 1.03 ± 0.03
AAGGTATGC | 1.01 ± 0.048
AAGGTATGTT | 0.981 ± 0.021
AAGGTCAAGG | 1.015 ± 0.0056
AAGGTCATTT | 1 ± 0.034
AAGGTCCAGT | 1.13 ± 0.23
AAGGTCCGCT | 1.05 ± 0.02
AAGGTCTATT | 0.998 ± 0.06
AAGGTCTGAG | 1.02 ± 0.043
AAGGTCTGGT | 0.985 ± 0.038
AAGGTGAGGG | 1.03 ± 0.02
AAGGTGGGGG | 0.991 ± 0.033
AAGGTGTGGG | 1.01 ± 0.015
AAGGTGTTTG | 1.05 ± 0.04
AAGGTTAAGG | 0.993 ± 0.025
AAGGTTAATG | 1 ± 0.016

Sequence | switch fluorescence ratio
AAGGTTAGGG | 0.984 ± 0.029
AAGGTTATCT | 1.005 ± 0.0068
AAGGTTCGAT | 0.984 ± 0.049
AAGGTTGCGG | 1 ± 0.037
AAGGTTTGTA | 0.9899 ± 0.0068
AAGGTTTTTA | 0.993 ± 0.029
AAGTAACGGT | 1.02 ± 0.047
AAGTAAGTAG | 1.01 ± 0.021
AAGTACTATC | 1.26 ± 0.025
AAGTACTTGA | 1.12 ± 0.052
AAGTAGATTG | 1.003 ± 0.0081
AAGTAGGCGC | 0.9958 ± 0.008
AAGTATAGC | 1.02 ± 0.044
AAGTCATTTT | 1.026 ± 0.0017
AAGTCCAATG | 1.01 ± 0.023
AAGTCCGATA | 0.9941 ± 0.0038
AAGTCGTTCG | 0.989 ± 0.016
AAGTCTCTCC | 1.06 ± 0.018
AAGTCTGCAG | 1.002 ± 0.01
AAGTCTGTTA | 0.994 ± 0.032
AAGTCTGTTT | 1.03 ± 0.028
AAGTGAATGG | 0.9986 ± 0.0032
AAGTGACCTT | 1.135 ± 0.0039
AAGTGAGGGG | 0.998 ± 0.028
AAGTGCGATC | 1.04 ± 0.019
AAGTGGCTTT | 1 ± 0.014

Sequence | switch fluorescence ratio
AAGTGGGCGT | 1.01 ± 0.046
AAGTGGGGA | 0.986 ± 0.018
AAGTGGGGCT | 1.005 ± 0.0094
AAGTGGGGGA | 1.02 ± 0.015
AAGTGGGGTA | 1.03 ± 0.022
AAGTGGGTGT | 0.99 ± 0.059
AAGTGGGTTT | 1.02 ± 0.037
AAGTGTCTTG | 0.999 ± 0.05
AAGTGTTAAT | 0.9955 ± 0.0031
AAGTTACGT | 1.06 ± 0.025
AAGTTAGACA | 1.021 ± 0.0087
AAGTTAGTTA | 1.03 ± 0.02
AAGTTCAGTA | 0.9673 ± 0.0084
AAGTTCAGTG | 1.014 ± 0.0068
AAGTTCTGGA | 0.976 ± 0.07
AAGTTGGGGC | 0.989 ± 0.032
AAGTTGGTCT | 1.02 ± 0.018
AAGTTGGTTC | 0.98 ± 0.052
AAGTTGTATG | 0.9787 ± 0.0025
AAGTTGTTAT | 0.986 ± 0.045
AAGTTTAGCA | 1.01 ± 0.021
AAGTTTATTT | 0.973 ± 0.051
AAGTTTCGAG | 0.983 ± 0.017
AAGTTTCGGG | 0.987 ± 0.027
AAGTTTTCAG | 0.97 ± 0.021
AAGTTTTGGT | 0.964 ± 0.019

Sequence | switch fluorescence ratio
AATAAAAAGG | 0.991 ± 0.019
AATAAAAAGT | 0.982 ± 0.023
AATAAAAGAT | 1 ± 0.017
AATAAAATT | 1.03 ± 0.076
AATAAACGGG | 1.03 ± 0.015
AATAAAGAGT | 0.974 ± 0.015
AATAAAGGAT | 1 ± 0.017
AATAACAAAA | 0.995 ± 0.037
AATAACCAGT | 1.02 ± 0.016
AATAAGAGGG | 1.01 ± 0.026
AATAAGGAGA | 1.01 ± 0.019
AATAAGGGGA | 1.02 ± 0.077
AATAAGGTAT | 0.965 ± 0.014
AATAAGTTTT | 0.969 ± 0.037
AATAATGTTG | 0.998 ± 0.015
AATAATTGTG | 1.02 ± 0.028
AATACAGCAT | 1.03 ± 0.014
AATACCATCG | 1.05 ± 0.033
AATACGACGG | 1.14 ± 0.014
AATACGAGAG | 1.03 ± 0.019
AATACGAGTC | 1.09 ± 0.022
AATAGAAAAT | 0.97 ± 0.061
AATAGAATTA | 1 ± 0.018
AATAGAGTGG | 0.99 ± 0.024
AATAGCATGG | 1.03 ± 0.024
AATAGCTAGT | 0.99272 ± 0.00015

Sequence | switch fluorescence ratio
AATAGGACGG | 1.03 ± 0.022
AATAGGGCAG | 1.009 ± 0.0078
AATAGGGGTA | 0.987 ± 0.029
AATAGGGTG | 1.08 ± 0.07
AATAGGTAG | 0.976 ± 0.014
AATAGGTTAG | 1.001 ± 0.0075
AATAGTTACT | 1.0234 ± 0.00037
AATAGTTAGG | 1.02 ± 0.012
AATAGTTTAG | 0.9918 ± 0.0035
AATATAGCGT | 0.969 ± 0.021
AATATAGTTG | 1.02 ± 0.018
AATATGAGGG | 1.01 ± 0.042
AATATGTGTG | 0.97933 ± 0.00034
AATATTAGGC | 1.03 ± 0.03
AATATTCTGT | 0.9923 ± 0.0029
AATATTTAGT | 1 ± 0.024
AATATTTTCC | 1.04 ± 0.052
AATATTTTTG | 1 ± 0.019
AATCAAGTAG | 0.9821 ± 0.0086
AATCACGGTG | 1.05 ± 0.052
AATCAGCCTC | 1.01 ± 0.016
AATCAGCGGT | 1.02 ± 0.028
AATCATTCCG | 1.07 ± 0.041
